From patent publication US11939377B2, “Affinity matured CD22-specific monoclonal antibody and uses thereof” (The U.S.A., as represented by the Secretary, Department of …, priority 2018, dated 2024)

B1: m971-L7: affinity matured human monoclonal antibody specific for CD22; VH SEQ ID NO: 4, VL SEQ ID NO: 5, scFv SEQ ID NO: 6 (antibody, V domains shown)
VH: QVQLQQSGPGMVKPSQTLSLTCAISGDSVSSNSVAWNWIRQSPSRGLEWLGRTYYRSTWYNDYAVSMKSRITINPDTNKNQFSLQLNSVTPEDTAVYYCAREVTGDLEDAFDIWGQGTMVTVSS
VL: DIQMIQSPSSLSASVGDRVTITCRASQTIWSYLNWYRQRPGEAPNLLIYAASSLQSGVPSRFSGRGSGTDFTLTISSLQAEDFATYYCQQSYSIPQTFGQGTKLEIK

Legend:
[1] = system: CD22 expression on ALL and DLBCL cell lines (Nalm6, Kopn8, SEM, Pfeiffer, Toledo, PDX); test: CD22 expression on leukemia/lymphoma cells by flow cytometry after drug exposure in vitro; assay type: cell-based, human; details: Enzastaurin 10 μM, Staurosporine 100 μM, 24 hours
Procedure: FIGS. 3A-3D: (FIG. 3A) Four cell lines (Nalm6, Kopn8, Pfieffer and Toldeo) were co-incubated with 1 ng/ml Bryostatin 1 for 24 hours and analyzed using flow cytometry one day after Bryostatin 1 exposure. Site density was analyzed using standardized Quantibrite-PE beads. (FIG. 3B) Cell lines were co-incubated with 1 ng/ml Bryostatin 1 for 24 hours, washed, and analyzed using flow cytometry at 1 and 7 days after Bryostatin 1 exposure. Fold change was calculated based on site density: (Cell line Bryostatin 1—Cell line DMSO)/Cell line DMSO. (FIG. 3C) NSG mice were injected with 1×10^6 GPF-positive Nalm6 leukemia cells on Day 0. Bryostatin 1 was administered at 0.8 μg/kg on Day 3. Mice were sacrificed 7 and 12 days after Bryostatin 1 injection and CD22 was evaluated by flow cytometry. (FIG. 3D) CD22-low relapse PDX cell line was cultured in vitro with 1 nmol/L Bryostatin 1 for 24 hours and measured for CD22 expression using CD22 antibody.
FIGS. 10A-10E: (FIG. 10A) Three cell lines (Toldeo, Kopn8 and Nalm6) were co-incubated with Bryostatin 1 at varying concentrations for 24 hours. At 24 hours, cells were collected for protein kinase C (PKC)-βII isoform analysis by western blot. (FIG. 10B) KOPN8 or SEM cell lines were exposed to Bryostatin 1 for 16, 24, 48 or 72 hours. RNA was extracted from cells and analyzed using RNAseq. (FIG. 10C) Immunofluorescent staining of CD22 was conducted through permeabilization followed by staining of CD22. (FIG. 10D) Four cell lines were co-incubated with various combinations of Enzastaurin (10 μM), Staurosporine (100 μM), or Bryostatin 1 (1 nM) for 24 hours. CD22 expression was assessed using flow cytometry. MFI fold change=CD22 MFI^Bryostatin1/CD22 MFI^DMSO. (FIG. 10E) Cell lines were co-incubated with 1 nM Bryostatin 1 for 24 hours and measured for CD22 expression using CD22-PE antibody. MFI fold change=CD22 MFI^Bryostatin 1/CD22 MFI^DMSO.
FIG. 11: CD22^lo or parental Nalm6 cell lines were exposed to 1 ng/ml Bryostatin 1 for 24 hours. CD22 expression was assessed using flow cytometry.
For all in vitro experiments and tumor/CAR pretreatment prior to intravenous injection, Bryostatin 1 was administered to cells at a concentration of 1 ng/mL. Dimethyl sulfoxide (DMSO) vehicle control was administered to control-treated cells at an equal volume. Prior to co-culture or intravenous injection, Bryostatin 1- and DMSO-treated cells were washed 3x in sterile PBS. For all in vivo experiments, Bryostatin 1 was diluted in PBS and administered via intraperitoneal injection at a dose of 40 μg/kg (1 μg/25 g mouse). For control-treated groups, an equal volume of DMSO was diluted in PBS and administered in the same manner
FACS analysis of cell surface CAR and protein expression was performed using an LSR II Fortessa flow cytometer (BD Biosciences). CD22-CAR was detected by incubation with 22-Fc (R&D Systems), followed by incubation with human IgG-specific PE-F(ab)2 (Thermo Fisher Scientific). The following human monoclonal antibodies were used for detection of cell surface proteins: CD22-APC, CD22-PE, CD19-Pacific Blue, CD45-PerCP/Cy5.5, CD3-APC/Cy7, PD1-PE/Cy7, LAG3-APC, TIM3-Pacific Blue, CD8-APC, CD8-PE/Cy7, CD45RA-APC, CD45RO-PE/Cy7, CCR7-Pacific Blue, CD4-Pacific Blue, CD69-APC (all from BioLegend). CD22 site density was determined using QuantiBrite-PE beads (BD Biosciences) using methods previously described (Jasper et al., Cytometry B Clin Cytom 80(2):83-90, 2011). Dead cells were identified using eFluor 506 fixable viability dye (Thermo Fisher Scientific). GFP-expressing leukemia cells were identified through the FITC channel.

[2] = target: CD22 extracellular domain (ECD) (Homo sapiens, UniProt P20273); test: BIAcore surface plasmon resonance of scFv binding to immobilized CD22 ECD-Fc
Procedure: FIGS. 13A-13F: (FIG. 13A) BIAcore analysis was used to evaluate association and dissociation curves of various scFvs. […] (FIG. 13B) CD22^V1 or CD22 CART were co-cultured with CD22^neg or CD22^lo leukemia and evaluated at 24 hours for PD1 expression through flow cytometry on a Fortessa flow machine. (FIGS. 13C-13F) Mice were injected with CD22^lo or Nalm6 leukemia on Day 0. […] Bone marrow cells were stained for flow cytometry and analyzed on Fortessa flow machine. Statistics were calculated using unpaired t-test (** p<0.0021).
Purified CD22 ECD-Fc fusion protein was diluted in 10 mM acetic acid buffer, pH 5.0, immobilized on a CMS biosensor chip for 1400 RU using an amine coupling kit. The running buffer was HBS-EP (10 mM HEPES, pH 7.4, 150 mM NaCl, 3 mM EDTA, 0.05% surfactant P20). The scFvs diluted in running buffer were allowed to flow through the cells at concentrations 0.32, 1.6, 8, 40 and 200 nM. After a 10-minute of dissociation, the chip was regenerated with 10 mM acetic acid, pH 4.0, 0.5 M NaCl. The data were fitted with 1:1 binding model and the dissociation rate constant was estimated with the BIAevaluation software.

| Molecule | upregulation of CD22 [1] | affinity relative to original scFv m971 ([2]; as measured by BIAcore) | Kd ([2]; scFv, bound from instrument limit kd) | Kd ([2]; scFv, bound from instrument limit kd 1.0×10^−5 / 5.6×10^5) | calculated dissociation rate constant kd ([2]; scFv, lower than the kd measurable by BIAcore X-100 (1.0×10^−5 l/s)) |
| --- | --- | --- | --- | --- | --- |
| CN[C@@H]1C[C@H]2O[C@@](C)([C@@H]1OC)n1c3ccccc3c3c4c(c5c6ccccc6n2c5c31)C(=O)NC4 [Staurosporine] | neither the PKCβII inhibitor, Enzastaurin, nor a broad PKC inhibitor, Staurosporine, was able to upregulate CD22 | – | – | – | – |
| Cn1cc(C2=C(c3cn(C4CCN(Cc5ccccn5)CC4)c4ccccc34)C(=O)NC2=O)c2ccccc21 [Enzastaurin] | neither the PKCβII inhibitor, Enzastaurin, nor a broad PKC inhibitor, Staurosporine, was able to upregulate CD22 | – | – | – | – |
| B1 | – | more than 1000 fold | < 18 pM | < 18 pM | 1.1e-06 L/s |
